Results published in the DeepSol protein solubility set.

Test: soluble on expression in E. coli; label from the status in PepcDB or PDB records

| Sequence | soluble on expression in E. coli |
| --- | --- |
| MENKTVNQVIHYVYEGGGEAATDHNATVVFSQTITTDKVTGEKTYSDWTADNGDSFASVTSPVIDGYTADQLKVSEMTGITVDTEDISVTVTYTRNQGTIDVTYIDETTGKILEHHHHHH | not soluble |
| LQETGAEFKIEVSILKDKATVLIDTTGASLFKRGYRTDKGGAPIKENMAAAILELSNWYPDKPLIDPTCGSGTFCIEAAMIGMNIAPGFNRDFAFEAWNWVGKDLVQSVRDEADSKANYDVALDIMGCDIDSRMVEIAKANAREAGLEDVVKFKQMRLQDLKTDKINGVIISNPPYGERLLDDKAVDILYNEMGQTFAPLKTWSKFILTSDEQFESKYGMKADKKRKLYNGTLRVDLYQYFGERVRRSEARKVN | not soluble |
| MGKVTGFLEIERHDRVYAPVTDRVKNYNEFVVPLSEKDLRDQAARCMNCGIPYCHGTGSAQPGATGCPVNNQIPDWNDLVYNGYWQEAARTLHSTNNFPEFTGRICPAPCEASCTLNIDDNPVTIKTIECAIVDTAFDNGWVTPEIAAVKTGQSVAVVGAGPAGLACAQQLARAGHDVHVYEKFAKAGGLLRYGIPDFKMEKTLIDRRVAQMEAEGVTFHYGAPVGGSAPGAVDPAELLKQYDAVALTGGAEAPRDLPIPGRELGGIHFAMDFLTQQNRRVSGEAVNGTDILAAGKNVVVIGGGDTGSDCIGTSIRQGAKSVTQIEIMPAPPERENKALTWPNWPMKMRTSSSQAEGAAREFAVMTQSFEGEGGVVKKLNCVRVDAKFQPIPGTEFTLEADLVLLAMGFVSPVKEGLLTQLGVALDPRGNVAADLSHFTTSVDKVFAAGDMRRGQSLVVWAIREGRLCAQAIDRFLMGATTLPRLEHHHHHH | not soluble |
| MTYQDRSGATAVVQSSYQLVLLTPAAIHGADPREKAEFRLSSLRGVWRYWWRTLQDEPDPEKLLAKEEEWFGGTRKMKQQSPIHLSMAGVMEGTKKENILPHRTSPTLVPALPAGGEVTVTLSVRKRHQERLAQYDWYFQYVLHLASFGQRSRRGFGAVQWIGHQWSNVGEYVESLRMVLEHIGVAGAFSFAERDCLVARRGDIQTQHPVLSAVWIGEGKESAAEVVKAFGKASHEANRYGSLGYMRGKAGKLSSTLWCTVRKIGNWYYPIVTEVRNHDPHYSEPRYEQDRNRFLEIVGVRI | not soluble |
| MDLHADSLDGTRSGPGLPTSDTKASFEAHVREKFNRMVEAVDRTVEKRIDKLTKELAQKTAELLEVRAAFVQLTQKKQEVQRRERALNRQVDVAVEMIAVLRQRLTESEEELLRKEEEVVTFNHFLEAAAEKEVQGKARLQDFIENLLQRVELAEKQLEYYQSQQASGFVRDLSGHVLTDISSNRKPKCLSRGHPHSVCNHPDLKSHFHPKGRNHLKKAKDDRASMQPAKAIHEQAESSRDLCRPPKKGELLGFGRKGNIRPKMAKKKPTAIVNII | not soluble |
| MGHHHHHHSHMDVPYLINCLVFLFCFSKSNEHSSEYPFVRDLSLEGRLLAKNICTFNIHIHIYTHFFLRQRFTLSPRLKCSGMIIVHCSLYLLGSSNPPT | not soluble |
| MEHLLAIALGPVQEFIATARRTRDLYAGSRLLSEAAARAAKALAREVGAKNLIFPAPEDEAGLERLAGAGIPNVLLVRVPEGKDPRGLGEQALGAARDYLRERAEEVLGPRRDLLFWREALAQVEDLLEGYYAYLPLEGDYPRARERLMALLAARKNTRDFAPVSWGSPAYKSSLDGARESVLRLPEKEADHLRVRLGLRPGEYLAGPDLLKRWWKAGHGFLSTTHMAALPFWEGVRRAGLEAVLKEALEELGGLVGEEARAEVRHPVLRDTPFGEWDVRLLYESRLEEFPSLAEDPGLLEKARDRLRALWRRLFPKVRVPPGAYYALLHADGDRMGETLDGLPSPEAHRRFSNALALGFAAQVKDIVEAHGGGLVYSGGDDVLALLPLHTALMAARALADRFREAMAPFGREGRAPSLSVGLAVVHHLEPLQDALDLARRAEKWAKEGEPKRNALCVAYSPRSGAERLVRGRWDENPPLTRRLLRYADLLRAGEVPSRAAYELLALVREAGEALSGEALVAEALRILGRKEMKRAYREELEAWLRTGEDVRRLAEELILARPFAEALDQAGVPVESREVWDAH | soluble |
| GYSNAGLVNNLAGKLIANYWLDKVYSKEEGYAHRNGDVHIHDLDCLTGYCAGWSLRSLLNEGFNGVRGRVESRAPKHLREALGQMANFLGILQSEWAGAQAFSSFDTYLAPYVFRDQLEFKEIKKAIKSFVYNLNVPARWGQSPFTNVTIDWTVPADLKDQIPTRNDRHLFEDIQEDALLVQEAQKRGASSLLSMTYKYFQAEMNLINRAFYEVMTEGDKTGQPFTFPIPTVNITEDFDWHGENTDLLFENTAKIGSSYFQNFIGSQYIRNEKGELVENPEAYKPNAVRSMCCRLQLDLRELLKRGGGLFGSAEMTGSIGVVTLNMARLGYRFRGDREGLMAELTKLMDLSKSTLEKKRQAVTELFHRGLYPYTKRYLPGFNNHFSTIGVNGINEMIRNFTNDQDNISSPSGMAFATEILEFMRERIRSYQEETGNLYNLEATPAEGTTYRFAKEDKKRYPQIIQAGMEENVYYTNSSQLPANFTDDPFEALTLQDELQCKYTGGTVLHLYMREKISSAEACRKLVKTVITSYKLPYITITPVFSVCPKHGYLRGEHEYCPLCDEEALLEIEQSQCC | not soluble |
| MSLDDYTVRVRVPGGEWKDLFEYNVQVDMDRVQDASMVQFDMGSLVEVMVKKNNGTIHEVDIRPQVNDIRYVQYKNVITFMLDKPRYLSVEFNGDRLHNLHVFANPMETETYSKEEKGVMYFGPGVHRPKDLPNNQIRIPSNTTVYLAPGAVVKAKLWVDKAENVRIVGRGILDHPIRGIEITDSKNVVVDGITVINPDHYTVFGGGSVGVTIRNLKSFSCKGWSDGIDMMCCHDVLIDNVFMRNSDDCIALYNHRWNWWGGSDNITVQNSILWADIAHPINVGGHGDPESLIGETIENLIFRNIDILEHDEDDVPYQGCMAIDAGDRNRVKNILFEDIRVESIQEGKLFHINIRFNPKYDKQPGQSIDGVTFRNITYNGVGENPSLIKGLDKERMVRNITFENVVVNGEKIKDLKGFITNEYIEGIKIKEGHHHHHH | not soluble |
| MKYPPSLVSLIRELSRLPGIGPKSAQRLAFHLFEQPREDIERLASALLEAKRDLHVCPICFNITDAEKCDVCADPSRDQRTICVVEEPGDVIALERSGEYRGLYHVLHGVLSPMNGVGPDKLHIKPLLPRVGQGMEVILATGTTVEGDATALYLQRLLEPLGAAISRIAYGVPVGGSLEYTDEVTLGRALTGRQTVSKPQPPQRPGDEDGADGAAVPASRLEHHHHHH | soluble |
| MQFFTSDTHFFHKDLLGDSDFAPRPFASVDEMNQTIIDNWNARVAETDTVYHLGDIALYFTKPAIKSDEAVFNVLSQLNGHLELIKGNHDSRALFKYLAAHNFSDHGQPKFAFHDVGALIKYDHRQYYLTHYPMMLGIVNQIINLHGHIHHYAVPVKENINVGVDTPEQRYLTTSVPFGTPFSPTEIEQMVTGKAQEFREKQLEHHHHHH | not soluble |
| MCHEEVFSCCRTRTFHFLRSYGHDGWRNDGRNDERKADVSAHVLLPLHDAYDADDVHDADDGYALHGYEPHDGNDEHADDGSGNHEDCNRTQAKVYEGTYGKTPEENEKVIFSSFFPLFLEE | not soluble |
| MAIQHPDIQPAVNHSVQVAIAGAGPVGLMMANYLGQMGIDVLVVEKLDKLIDYPRAIGIDDEALRTMQSVGLVDNVLPHTTPWHAMRFLTPKGRCFADIQPMTDEFGWPRRNAFIQPQVDAVMLEGVSRFPNVRCLFSRELEAFSQQDDEVTLHLKTAEGLREIVKAQWLVACDGGASFVRRTLNVPFEGKTAPNQWIVVDIANDPLSTPHIYLCCDPVRPYVSAALPHAVRRFEFMVMPGETEEQLREPQNMRKLLSKVLPNPDNVELIRQRVYTHNARLAQRFRIDRVLLAGDAAHIMPVWQGQGYNSGMRDAFNLAWKLALVIQGKARDALLDTYQQERRDHAKAMIDLSVTAGNVLAPPKRWQGTLRDGVSWLLNYLPPVKRYFLEMRFKPMPQYYGGALVREGEAKHSPVGKMFIQPKVTLENGDVTLLDNAIGANFAVIGWGCNPLWGMSDEQIQQWRALSTRFIQVVPEVQIHTAQDNHDGVLRVGDTQGRLRSWFAQHNASLVVMRPDRFVAATAIPQTLGKTLNKLASVMTLTRPDADVSVEKVA | not soluble |
| MAHHHHHHMVLTLDCSQAVQNTIRELQDTRAFTDDDGAETIATTWFSDVGLCITGYTRDLVAAINSQGTPSVVVVIQNLHTFADRQRQKVLKIHQRYFNSVLSDTTKVVPVVSQDDYTKILRHMQVSKIRTLKWRDQHPYMAVEEKAYNPETQELTITGHLRGMPLSATQLVHLTNHGTFQVCKIEEVRKGDERVLIETSEAAQRESLQQVQANSTLEDDGFPTDADVLYHQEIAGTHKIRVPAGVSSDQAAWYDTEENIVKDSAPKHQHITMDDEDAFAGDAMSYRTTQTDVDFLKAEDVVRLERMTDEERILEMEKLKELSEEETWNPDMVDTPVNIPARQRFAKYRGMRSFHTGRWDPAENLPPQYAYIYKLQGYSRIRESAIDACEGGMAEVGMCIAITLVNVPQSVWNACERCLLIASGQLQHEQKWSVLHFQVQRASELDEPIKSKTPMLAHIGFRKFYVSPLFSDISSGDRSKFARFFHEGDRFRMATFFGPISYNPCPLLLFQVPSLEEQAEGNPLRLACFGGSLPPNPETLLLKRAVLSGRVAVIHKKQVVVKYMFFNDEDIKWFQPVDLYTKFGRRGKITKPVGTHGLFKAVLNDQIMQHDVVCMDLFKRVFPKWTTVAFSMSDVPAGHTENEEER | not soluble |
| MNPILTAAKQLLHKEEKILSTLKCSLTGYMITHKVPYPGMLLATNQRLLFFSQYKNTFIAEFDYEKILSIETKRRIFDKKIIFYYEDEYITLGYITSSNVEAFIDLLQRNSKTSTGL | not soluble |
| MGLPCYHMQEVIMNKANKGHLDFWRKVANSPPGSQHDWNRVFANYTATVDNPGCCVWKELLAAYPDAKVLLTLHPRGAEAWYESTIDTIYFTENVWQFKILEWLTPFGWKFGDMSRKLIWGRTLDGVMNDRAKAVARYNTYVEQVKAAVPPHKLLVYKVTEGWAPLCDFLGLEHHHHHH | not soluble |
| MGSDKIHHHHHHMERIEAGMSVMTLKKQTYRVIAVINQGQELLVRAHEPETADIEIIPVTTVVQVTEQNSTGDAAVALDTVTVVGERYVDDIVATLTTLRVGMAVLLQRESGNQYDDNAISVWTLQHAKLGYIARYQNQPYATLMDQGQRLYGIVTVLDQQKQHLELMLWRTTAVPSPIEALQIRQRLAKPRTNLGAVPTHSLQTPLGTIVMMCNGHPIKYQQVPLSPWLTPADELHVTKRYLLTPDWSQVPPDSLITCQVTAKADVVQRWQNEHISAAVLTNASSFYVVGISAQTKTGLNDNLVDDAAQPAVIYRVGQVSAHMQAGFMVSWAPFGDPRVQPALKLALHFSSQPLVPYHPVTPSRTNATFTQQELAALLVSALPNYQGGQRLEPSVTTITVEKLRQTLGDQTYHALANYQRHVQLVAGSTEGVNETLLQALIHAVTYHELTTMHYYQPTVGMVDQVIYPIQLFSTTTKDEDDAQLVGCLALYNYETFEIQQVPLTAIARIAIIADPEHPQTTPETESPDWLRIFLHGWNDDF | not soluble |
